Results on 2 substances are retold here after PMC5350311.

Assay [1] concerns the target protein phosphatase 1 (rabbit) (UniProt P62139).
Assay [2] has the same target. The source holds these as a separate data set.

Chain of UniProt P62139 (P62139 whole entry): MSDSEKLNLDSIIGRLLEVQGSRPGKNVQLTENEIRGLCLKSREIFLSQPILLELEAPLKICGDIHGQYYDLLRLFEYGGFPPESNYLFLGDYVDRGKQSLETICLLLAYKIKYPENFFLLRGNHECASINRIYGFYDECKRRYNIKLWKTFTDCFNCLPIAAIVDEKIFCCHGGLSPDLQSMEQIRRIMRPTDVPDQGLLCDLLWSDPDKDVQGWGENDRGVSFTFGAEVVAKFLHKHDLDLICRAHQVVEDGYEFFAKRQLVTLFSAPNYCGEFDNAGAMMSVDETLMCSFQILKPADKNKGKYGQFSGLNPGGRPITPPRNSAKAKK

The substance glutathione conjugate of MCLR (peptide) displayed an IC50 of inhibition of PP1 activity (colorimetric protein phosphatase inhibition assay, p-nitrophenyl disodium orthophosphate, 25.0°C, pH 7.4) in assay [1] of 86.6 μg/L. In assay [2], the IC50 of inhibition of PP1 activity (inhibition curves, colorimetric protein phosphatase inhibition assay) worked out at 86.6 µM.

Regarding glutathione conjugate of MCRR (peptide), the IC50 of inhibition of PP1 activity (colorimetric protein phosphatase inhibition assay, p-nitrophenyl disodium orthophosphate, 25.0°C, pH 7.4) in assay [1] was 98.7 μg/L. In assay [2], this substance yielded an IC50 of inhibition of PP1 activity (inhibition curves, colorimetric protein phosphatase inhibition assay) of 98.7 µM.
